Test results: article PMC3526273, “A SUMO-interacting motif activates budding yeast ubiquitin ligase Rad18 towards SUMO-modified PCNA” (Nucleic Acids Research, 2012)

T1: GSTPCNA (S. cerevisiae, UniProt P15873 1-258)
T1 construct: PCNA of S. cerevisiae; not shown: GST, N-terminal, kept
T1 sequence (looked up): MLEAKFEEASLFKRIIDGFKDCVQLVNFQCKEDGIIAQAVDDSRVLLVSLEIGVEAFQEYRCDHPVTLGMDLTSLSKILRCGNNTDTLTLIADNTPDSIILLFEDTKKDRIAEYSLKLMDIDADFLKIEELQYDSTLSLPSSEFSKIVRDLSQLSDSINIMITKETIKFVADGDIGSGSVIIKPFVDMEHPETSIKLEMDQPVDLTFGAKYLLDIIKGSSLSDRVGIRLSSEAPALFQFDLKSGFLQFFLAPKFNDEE


Molecular target: T1, GSTPCNA
Assay: pull-down; GST-tagged protein immobilised on glutathione Sepharose (1 h, 4°C), binding partner added for 90 min at 4°C in phosphate-buffered saline with 0.05% Triton X-100; three washes; anti-His western blot
Details: both partners purified

Row | binding result | Binder
1 | binds | HisRad18(1-255) (domain or fragment, S. cerevisiae, UniProt P10862 1-255, looked up, detected by anti-His western blot; not shown: His6, N-terminal, kept) MDHQITTASDFTTTSIPSLYQLDTLLRCHICKDFLKVPVLTPCGHTFCSLCIRTHLNNQPNCPLCLFEFRESLLRSEFLVSEIIQSYTSLRSSLLDALRIPKPTPVPENEEVPGPENSSWIELISESESDSVNAADDDLQIVATSERKLAKRSMTDILPLSSKPSKRNFAMFRSERIKKKSKPNEQMAQCPICQQFYPLKALEKTHLDECLTLQSLGKKPKISTTFPTESNPHNKSSSRFKVRTPEVDKSSCGET
2 | binds | HisRad18(1-255) SIM* (L139A, I141A, V142A) (domain or fragment, S. cerevisiae, UniProt P10862 1-255, looked up, also called SIM* mutant; not shown: His6, N-terminal, kept) MDHQITTASDFTTTSIPSLYQLDTLLRCHICKDFLKVPVLTPCGHTFCSLCIRTHLNNQPNCPLCLFEFRESLLRSEFLVSEIIQSYTSLRSSLLDALRIPKPTPVPENEEVPGPENSSWIELISESESDSVNAADDDAQAAATSERKLAKRSMTDILPLSSKPSKRNFAMFRSERIKKKSKPNEQMAQCPICQQFYPLKALEKTHLDECLTLQSLGKKPKISTTFPTESNPHNKSSSRFKVRTPEVDKSSCGET
